Experiments:
[1] = biological target: T1, human EGFR on cells (HCT116, A549, A431, HT29) (human, UniProt P00533 25-1210); assay: flow cytometry on A549 cells, Fab at 100 nM
T1 construct: whole, on cells; also called cell surface EGFR; cell-surface EGFR
Protocol: To measure the binding of SMET5 Fab to cell surface EGFR, about 5×10⁵ cells were incubated with 100 nM antibody on ice for 1 h. The cells were washed once with PBS containing 0.1% bovine serum albumin (PBSA) and resuspended in 200 μl PBSA. Then 5 μl anti-His-PE conjugate was added and incubated for 30 min. The cells were washed once with PBSA and then used for flow cytometry analysis.

[2] = biological target: T2, recombinant human EGFR (human, UniProt P00533 25-645); assay: ELISA, recombinant human EGFR coated, Fab
T2 construct: Bought protein; construct not described; also called hEGFR
Protocol: (§1) ELISA was performed according to standard protocols. Briefly, recombinant human or cynomolgus EGFR was coated on Corning EIA/RIA high-binding 96-well plates (Corning Inc.) at 50 ng per well overnight at 4° C. and blocked with 3% nonfat milk in PBS (pH7.4). Fivefold serially diluted antibodies were added and incubated at room temperature for 2 hours. The plates were washed with PBS containing 0.05% Tween 20. Bound Fab and IgG1s were detected by HRP-conjugated anti-FLAG tag antibody and HRP-conjugated anti-human IgG (Fc-specific) antibody, respectively. The assay was developed at room temperature with TMB substrate (Sigma-Aldrich) and monitored at 450 nm with a microplate reader. The half-maximal binding (EC₅₀) was calculated by fitting the data to the Langmuir adsorption isotherm.

[3] = biological target: T2, recombinant human EGFR; assay: ELISA, recombinant EGFR coated
Protocol: as §1

[4] = biological target: T1, human EGFR on cells (HCT116, A549, …); assay: flow cytometry on A549 cells, 2 µg/mL
Protocol: To measure the binding of IgG1 s of SMET5 variants to cell surface EGFR, about 5×10⁵ cells were incubated with 2 μg mL⁻¹ antibodies on ice for 1 h. The cells were washed once with PBSA and resuspended in 200 μl PBSA. Then 5 μ1 goat F(ab′)2 anti-human IgG (γ)-FITC conjugate was added and incubated for 30 min. The cells were washed once with PBSA and then used for flow cytometry analysis.

[5] = biological target: T3, recombinant cynomolgus EGFR (cynomolgus, UniProt A0A2K5WK39 25-645); assay: ELISA, recombinant cynomolgus EGFR coated
T3 construct: Bought protein; construct not described
Protocol: as §1

[6] = biological target: T2, recombinant human EGFR; assay: ELISA, recombinant human EGFR coated
Protocol: as §1

B1: SMET5 Fab (Fab, V domains shown)
VH: EVQLVETGGGVVQPGRSLRLSCAASGFTFSSYAMHWVRQAPGKGLEWVAVISYDGSNKYYADSVKGRFTISRDNSKNTLYLQMNSLRAEDTAVYYCARGYVARGDFDYWGQGTLVTVSS
VL: DIQMTQSPSTLSASVGDRVTITCRASQTVDSWLAWYQQKPGKAPKLLIYATSSLQSGVPSRFSGSGSGTDFTLTISSLQPEDFATYYCQQGHIAPHTFGQGTTLEIK
notes: Human Fab from a phage library, expressed in E. coli, His-tagged and detected by anti-FLAG; also called SMETS
B1: binds [1]; binds [2].

B2: SMET5.4 Fab (Fab, V domains shown)
VH: EVQLVETGGGVVQPGRSLRLSCAASGFTFSSYAMHWVRQAPGKGLEWVAVISYDGSNKYYADSVKGRFTISRDNSKNTLYLQMNSLRAEDTAVYYCARGYVARGDFDYWGQGTLVTVSS
VL: DIQLTQSPSSVSASVGDRVTITCRASQGISSWLAWYQQKPGKAPKLLIYAASALQSGVPSRFSGSGSGTEFTLTIYDLQPDDFATYFCQQYDTFLWTFGQGTKVEIK
notes: His-tagged Fab
B2: binds [2].

B3: SMET5 IgG1 (antibody, V domains shown)
VH: EVQLVETGGGVVQPGRSLRLSCAASGFTFSSYAMHWVRQAPGKGLEWVAVISYDGSNKYYADSVKGRFTISRDNSKNTLYLQMNSLRAEDTAVYYCARGYVARGDFDYWGQGTLVTVSS
VL: DIQMTQSPSTLSASVGDRVTITCRASQTVDSWLAWYQQKPGKAPKLLIYATSSLQSGVPSRFSGSGSGTDFTLTISSLQPEDFATYYCQQGHIAPHTFGQGTTLEIKR
notes: Human IgG1 from 293FS cells; also called SMETS IgG1
B3: binds [3]; binds [4].

B4: SMET5.3 Fab (Fab, V domains shown)
VH: EVQLVETGGGVVQPGRSLRLSCAASGFTFSSYAMHWVRQAPGKGLEWVAVISYDGSNKYYADSVKGRFTISRDNSKNTLYLQMNSLRAEDTAVYYCARGYVARGDFDYWGQGTLVTVSS
VL: DIQLTQSPSTLSASVGDRVTITCRSNQTADSWLAWYQQKPGKAPNLLIYAASNLQSGVPSRFSGSGSGTDFTLTISSLQPEDFATYYCQQSYSTPFMFTFGQGTKLEIK
notes: His-tagged Fab
B4: binds [2].

B5: SMET5.3 IgG1 (antibody, V domains shown)
VH: EVQLVETGGGVVQPGRSLRLSCAASGFTFSSYAMHWVRQAPGKGLEWVAVISYDGSNKYYADSVKGRFTISRDNSKNTLYLQMNSLRAEDTAVYYCARGYVARGDFDYWGQGTLVTVSS
VL: DIQLTQSPSTLSASVGDRVTITCRSNQTADSWLAWYQQKPGKAPNLLIYAASNLQSGVPSRFSGSGSGTDFTLTISSLQPEDFATYYCQQSYSTPFMFTFGQGTKLEIKR
notes: Human IgG1 from 293FS cells
B5: binds [3]; binds [4].

B6: SMET5.2 IgG1 (antibody, V domains shown)
VH: EVQLVETGGGVVQPGRSLRLSCAASGFTFSSYAMHWVRQAPGKGLEWVAVISYDGSNKYYADSVKGRFTISRDNSKNTLYLQMNSLRAEDTAVYYCARGYVARGDFDYWGQGTLVTVSS
VL: DVVMTQSPSTLSASVGDRVTITCRASQSMSRWLAWYQQKPGKGPKLLIYATSTLQSGVPSRFSGSGSGTEFTLTISSLQPEDFATYYCQQLDSFPFSFTFGPGTKVDLKR
notes: Human IgG1 from 293FS cells
In the case of B6, the EC50 [5] is reported as 0.76 nM and the EC50 [6] is reported as 1.4 nM.

From patent publication US20210388118A1 (ZHEJIANG SHIMAI PHARMACEUTICAL, published 2021)
